Data on 4 molecules can be found in PMC11790958 (The EMBO Journal, 2024).

No end group written: not given here. *: point of attachment. 5FAM = O=C1OC2(c3ccc(O)cc3Oc3cc(O)ccc32)c2ccc(C(=O)*)cc21; 5‑FAM = 5-carboxyfluorescein label

In assay [1] the target is T1, human condensin I pentamer, wild type (human, UniProt O95347 1-1197; Q9NTJ3 1-1288; Q15003 1-741; Q15021 1-1401; Q9BPX3 1-1015).
T1 construct: SMC2, human condensin I subunit; SMC4, human condensin I subunit; NCAPH, human condensin I kleisin subunit; NCAPD2, human condensin I HAWK subunit; NCAPG, human condensin I HAWK subunit; The complex carries a strep tag; also called CI; CIWT; source: Sf9 insect cells (baculovirus), co-expressed, purified (StrepTrap, heparin, SEC); copies: + + + +
Briefly: fluorescence polarisation; 100 nM 5-FAM labelled peptide, protein or complex titrated; 20 mM HEPES pH 8, 150 mM KCl, 2.5 mM MgCl, 5% glycerol, 1 mM DTT; room temperature, 15 min. Conditions: both partners purified.

Another assay has as its target T2, yeast condensin pentamer (S. cerevisiae, UniProt P38989 1-1170; Q12267 1-1418; P38170 1-754; Q06156 1-1176; Q06680 1-1035).
T2 construct: Smc2, S. cerevisiae condensin subunit; Smc4, S. cerevisiae condensin subunit; Brn1, S. cerevisiae condensin kleisin subunit; Ycs4, S. cerevisiae condensin HAWK subunit; Ycg1, S. cerevisiae condensin HAWK subunit; also called ScCondensin Pentamer; pentameric yeast condensin; source: purified as described previously (Martínez-García et al, 2022; Lee et al, 2020); copies: + + + +
The assay is described as above. The conditions noted are these: both partners purified.

B1: 5-FAM NCAPD2-C(1376-1398) peptide (peptide)
peptide: 5FAM-SAEMTEDETPKKTTPILRASARR
notes: NCAPD2, human condensin I HAWK subunit, residues 1376-1398 (C-terminal SLiM); also called 5-FAM-NCAPD2(1376-1398); F-NCAPD2-C(1376-1398); source: synthetic peptide; bought: Genscript
Turning to B1, the binding result in assay [1] is on record as “binds”.

B2: 5-FAM Sgo1(503-523) peptide (peptide)
peptide: TRTKKLFKNAIVNNLSDENST
modifications: also: 5-FAM label, end not given here
notes: Sgo1, yeast shugoshin, residues 503-523, SLiM; also called Sgo peptide; source: synthetic peptide; bought: Genscript
The molecule B2 yielded a Kd with yeast condensin pentamer of 4 ± 0.3 µM.

B3: 5-FAM-KIF4A WT(1206-1228) peptide (peptide)
peptide: 5FAM-PGKKKKRALASNTSFFSGCSPIE
notes: KIF4A, chromokinesin, residues 1206-1228 (C-terminal tail SLiM); also called 5-FAM-KIF4A(1206-1228); 5-FAM labelled KIF4A; source: synthetic peptide; bought: Genscript
Consider B3, for which binding in assay [1] was put at a Kd of 17.7 µM.

B4: 5-FAM Lrs4(317-337) peptide (peptide)
peptide: {5‑FAM}-NKKRKLTKQRIATLPNSDEEL
notes: also called 5-FAM Lrs4(317-339); Lrs4 peptide; source: synthetic peptide; bought: Genscript
B4 gave a Kd with yeast condensin pentamer of 12.9 ± 2.5 µM.
